In patent US20050085420A1, “Method of modulating apoptosis and compositions thereof” (priority 2003, published 2005):

Target: T1, N-terminal HA-tagged VDAC2 (murine, UniProt Q60930 1-295)
T1 construct: also called HA-VDAC2; hemagglutinin (HA)-tagged version of VDAC2; not shown: N-terminal HA tag
T1 sequence (looked up): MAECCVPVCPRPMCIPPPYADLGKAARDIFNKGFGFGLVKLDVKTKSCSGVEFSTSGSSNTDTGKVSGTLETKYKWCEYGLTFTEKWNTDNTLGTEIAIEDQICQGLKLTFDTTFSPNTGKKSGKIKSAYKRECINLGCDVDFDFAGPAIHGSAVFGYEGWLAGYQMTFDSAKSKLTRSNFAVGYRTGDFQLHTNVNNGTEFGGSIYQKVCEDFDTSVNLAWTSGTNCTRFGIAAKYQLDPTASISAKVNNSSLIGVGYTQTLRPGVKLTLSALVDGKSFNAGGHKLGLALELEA
Test: anti-HA immunoprecipitation in 1% CHAPS, anti-BID immunoblot
Method: The activated form of BID, p15 tBID, was first examined in cells expressing only VDAC2 and not the other isoforms, VDAC1 or VDAC3. Mitochondria isolated from vdac1 -/- , vdac3 -/- mouse fibroblasts with or without retroviral transduction of N-terminal HA-tagged VDAC2 were incubated with in vitro transcribed, translated wild-type or mutant tBID (mIII.4, G94E) protein at 30° C. for 30 min, followed by anti-HA immunoprecipitation in 1% CHAPS buffer.

B1: mutant tBID mIII.4 (G94E) (other, UniProt P70444 60-195, looked up)
chain: GSQASRSFNQGRIEPDSESQEEIIHNIARHLAQIEDEMDHNIQPTLVRQLAAQFMNGSLSEEDKRNCLAKALDEVKTAFPRDMENDKAMLIMTMLLAKKVASHAPSLLRDVFHTTVNFINQNLFSYVRNLVRNEMD
notes: domain: p15 tBID; also called m111.4 mutant; m l 11.4
binding result: no binding
